According to PMC2173386 (The Journal of Cell Biology, 2002):
Each block holds one binder with its values, some of them ahead of it.

How the values were obtained:
[1] = target: T1, p97 (valosin-containing protein) (rat, UniProt P46462 1-806); assay: pull-down
[2] = target: T1, p97 (valosin-containing protein); assay: co-IP
His-p47(171–270) = target: T2, His-p47(171–270) (UniProt O35987 171-270); assay: pull-down
T2 sequence (looked up): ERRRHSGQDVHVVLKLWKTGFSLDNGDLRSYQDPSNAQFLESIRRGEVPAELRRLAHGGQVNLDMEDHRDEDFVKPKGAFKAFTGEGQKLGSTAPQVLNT

binding result [1]: binds
B1: GST-tagged p47(171–270) (domain or fragment, UniProt O35987 171-270, looked up)
chain: T2 sequence (looked up)

binding result [2]: binds
B2: His-tagged VCIP135(744–1221) (domain or fragment, rat, UniProt Q8CF97 744-1221, looked up)
chain: TVSPSTIRDGPSSAPATPTKAPYSPTTSKEKKIRITTNDGRQSMVTLKSSTTFFELQESIAREFNIPPYLQCIRYGFPPKELMPPQAGMEKEPVPLQHGDRITIEILKGKAEGGPSTAAHSAHTVRQEEIAVTGKLSSKELQEQADKEMYSLCLLATLMGEDVWSYAKGLPHMFQQGGVFYNIMKKTMGMADGKHCTFPHLPGKTFVYNASEDRLELCVDAAGHFPIGPDVEDLVKEAVSQVRAEATTRSRESSPSHGLLKLGSGGVVKKKSEQLHNVTAFQGKGHSLGTASSNPHMDPRARETLAVRKHNTGTDFSNSSIKTEPPVFTAASSNSELIRIAPGVVTMRDGRQIDPDVVEAQRKKLQEMVSSIQASMDKHLRDQSTEQTPSDLSQRKVEAVSSSVRPGNLQTGLPESFSLTGGTENLNTETTDSRVADVLGAAFATRSKAQKENSMEEPEEMDSQDAETTNTTEPMDHS

binding result (His-p47(171–270)): binds
B3: GST-tagged p97(1–74) (domain or fragment, rat, UniProt P46462 1-74, looked up)
chain: MASGADSKGDDLSTAILKQKNRPNRLIVDEAINEDNSVVSLSQPKMDELQLFRGDTVLLKGKKRREAVCIVLSD

binding result [1]: binds
B4: GST-tagged p47(271–370) (domain or fragment, UniProt O35987 271-370, looked up)
chain: SSPAQQAENEAKASSSILINEAEPTTNIQIRLADGGRLVQKFNHSHRISDIRLFIVDARPAMAATSFVLMTTFPNKELADENQTLKEANLLNAVIVQRLT
